The assay deals with photoconvertible fluorescent protein DendFP (Dendronephthya sp). As to the kind of experiment: crystal structure; native DendFP crystals, hanging drop at 22 °C, 100 mM Tris-HCl pH 7.5, 0.2 M MgCl2, 20% PEG4000; eight molecules (two tetramers) in the asymmetric unit; interfaces analysed with PISA.

Consider “photoconvertible fluorescent protein DendFP (natural protein)”, for which the stoichiometry N was 4.

The record behind these values is paper PMC9104182.
